# B1: EF-hand domain-containing family member C2 (Homo sapiens), Q5JST6 (parent)
# chain: MALPLLPGNSFNRNVGKEKFHKSQHWGFCNNVMMLVSDEKPGIGGEPLLGQKIKPKCSIYPKGDGSDVPSWVAFDKQVLSFDAYLEEEVLDKSQTNYRIRYYKIYFYPEDDTIQVNEPEVKNSGLLQGTSIRRHRITLPPPDEDQFYTVYHFNVGTEVVFYGRTFKIYDCDAFTRNFLRKIGVKVNPPVQCPEDPYMKIRREVVEHVEPLRPYESLDTLKQFLQYHGKILCFFCLWDDSVSMFGDRRELILHYFLCDDTIEIKELLPHSSGRDALKMFLRRSKLPKNCPPRVYQPGQITDRAVLNSYGDFIKNQADGYLFDRYKLGKVDQEFYKDSDLSLGVTINVWGRKVLLYDCDEFTKSYYKSKYGIENFTSVSCKPPSPPPKIERKFPPYNGFGSEEDSLRNCIDLKPTPHRRNFKKFMEKDSYGSKSNILRFFAKLVTDKCVDLDRMFVISYYLGDDTISVFEPIERNSGIAGGMFLKRSRVKKPGQEVFKSELSEYIKAEELYIGVTVNVNGYLFRLLNADEYTLNYMEQNTDKYPFSNLKLALQKLKQEEGKSRELKQVFKAADSKHTNMVDYNTFRDILMSLTVGNLAEQEFVTIARHYRVPEGTCSDMDFLIALAHEKFKKNMFENFDTFIYSCVYEDREKKNVLPTKDIKRLCKSSRLPLSDDLLESLLSRFEDSEKQIDYKSFFSALNWRKNPVPELQPASYLKERCEDVWLGMPSPIPAKYIDYWTFLKDAFGLEEE
# B2: IQ motif and ubiquitin-like domain-containing protein (Homo sapiens), Q8NA54 (parent)
# chain: MSNQQEKYEAQNIVNSTEESDDAFDTVTIPVPSEEPQESDQTEEHESGIEQFSESHAIHVEEQSDQSFSSLEPDNEQLMEEVISPRQVSYTPQHHEKQYAMQRPNDDSLAFLDKIKSVKESLQESVEDSLATVKVVLIPVGQEIVIPFKVDTILKYLKDHFSHLLGIPHSVLQIRYSGKILKNNETLVQHGVKPQEIVQVEIFSTNPDLYPVRRIDGLTDVSQIITVTVQTGLDQYQQVPVEIVKSDFHKPFLGGFRHKVTGVEYHNAGTQTVPKRIPERLSIFCRDTQTVFQKKNLQQTTNTTSTQMTNIGVYVSNMTDKLVTPGKYFSAAEYHAQRLKAVIVIQTYYRQWHAKIFVENLRRQKSLRLEWETQQELRKIREKEEWIKLDYHRRHNPKTNEDFEFLYNALEFWRQEELTRINQSFTGAERKAALCELLEKETQIIASIGRHRYIAYMANQEAAIQAFLDKCSAPKIWRTPNGKTIEMDTQFTIRARELQNIYKCIMLKNISQDERLDVLLTLKHTVKEHECKLTQEILELIDREVDLMMRGVKHHNLEGLRKRIATLFFHYIKTPLFNPEVAKYLKVPQDPLKFYKKIYFCHSCQLYLPSTEFSVSSTSRRIYRCRNCINLQNEAQKRESFLKYKCLLQQLYYTEADYEDDSKIAFLMQLQDIQYLTENIWASQSVLSACDNLSDLVMVRWNKSLEWSPWNCILLTKDEAAAHLKLTSIEEGYERSFIHKIKHKHILAKNYFSQVPVLASFILDDGEIDEIRWKYHSDTTPKIIESQRPPH
# partner: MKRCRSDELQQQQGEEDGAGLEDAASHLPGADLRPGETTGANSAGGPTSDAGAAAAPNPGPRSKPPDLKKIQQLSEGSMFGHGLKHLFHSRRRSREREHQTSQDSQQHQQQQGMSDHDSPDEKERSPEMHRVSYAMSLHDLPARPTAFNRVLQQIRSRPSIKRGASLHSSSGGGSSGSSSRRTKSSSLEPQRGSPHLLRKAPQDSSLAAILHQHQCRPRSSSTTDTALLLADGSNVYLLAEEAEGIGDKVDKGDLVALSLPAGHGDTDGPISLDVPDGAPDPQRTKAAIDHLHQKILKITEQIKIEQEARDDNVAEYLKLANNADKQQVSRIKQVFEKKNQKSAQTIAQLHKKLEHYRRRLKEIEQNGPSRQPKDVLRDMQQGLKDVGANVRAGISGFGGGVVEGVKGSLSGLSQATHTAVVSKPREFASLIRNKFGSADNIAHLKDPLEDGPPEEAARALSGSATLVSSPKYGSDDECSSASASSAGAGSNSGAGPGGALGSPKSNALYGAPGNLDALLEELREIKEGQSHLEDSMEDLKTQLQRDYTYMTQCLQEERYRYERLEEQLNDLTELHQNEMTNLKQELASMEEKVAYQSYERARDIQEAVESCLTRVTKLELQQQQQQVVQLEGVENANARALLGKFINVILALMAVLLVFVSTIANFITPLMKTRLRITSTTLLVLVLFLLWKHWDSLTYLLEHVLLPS
# B3: Keratin, type I cytoskeletal 40 (Homo sapiens), Q6A162 (parent)
# chain: MTSDCSSTHCSPESCGTASGCAPASSCSVETACLPGTCATSRCQTPSFLSRSRGLTGCLLPCYFTGSCNSPCLVGNCAWCEDGVFTSNEKETMQFLNDRLASYLEKVRSLEETNAELESRIQEQCEQDIPMVCPDYQRYFNTIEDLQQKILCTKAENSRLAVQLDNCKLATDDFKSKYESELSLRQLLEADISSLHGILEELTLCKSDLEAHVESLKEDLLCLKKNHEEEVNLLREQLGDRLSVELDTAPTLDLNRVLDEMRCQCETVLANNRREAEEWLAVQTEELNQQQLSSAEQLQGCQMEILELKRTASALEIELQAQQSLTESLECTVAETEAQYSSQLAQIQCLIDNLENQLAEIRCDLERQNQEYQVLLDVKARLEGEINTYWGLLDSEDSRLSCSPCSTTCTSSNTCEPCSAYVICTVENCCL
# Variants of: B1
# Details: with plod3_human PLOD3, O60568
# Sequence of plod3_human PLOD3, O60568 (O60568 whole entry): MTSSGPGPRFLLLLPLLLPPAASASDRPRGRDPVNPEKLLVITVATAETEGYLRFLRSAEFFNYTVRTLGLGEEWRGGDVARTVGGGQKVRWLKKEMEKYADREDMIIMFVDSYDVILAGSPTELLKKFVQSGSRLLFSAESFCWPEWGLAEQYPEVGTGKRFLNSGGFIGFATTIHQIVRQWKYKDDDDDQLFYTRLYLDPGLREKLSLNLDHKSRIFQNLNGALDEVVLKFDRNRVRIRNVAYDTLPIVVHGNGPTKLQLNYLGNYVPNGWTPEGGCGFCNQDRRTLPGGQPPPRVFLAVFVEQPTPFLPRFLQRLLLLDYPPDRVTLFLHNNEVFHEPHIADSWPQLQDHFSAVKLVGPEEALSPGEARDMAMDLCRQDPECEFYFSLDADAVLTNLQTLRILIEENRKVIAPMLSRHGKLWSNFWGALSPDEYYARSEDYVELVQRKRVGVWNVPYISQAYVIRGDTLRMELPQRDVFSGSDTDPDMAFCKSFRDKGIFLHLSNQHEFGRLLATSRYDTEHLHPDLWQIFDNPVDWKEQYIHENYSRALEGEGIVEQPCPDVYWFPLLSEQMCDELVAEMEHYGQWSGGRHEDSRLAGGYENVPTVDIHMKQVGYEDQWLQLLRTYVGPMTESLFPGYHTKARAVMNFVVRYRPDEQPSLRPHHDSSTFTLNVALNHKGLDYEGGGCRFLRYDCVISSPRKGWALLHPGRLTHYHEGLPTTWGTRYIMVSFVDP
row,effect of a mutation on the interaction,Variant
1,disrupting interaction strength,N31S
2,disrupting interaction strength,E507Q

# Variants of: B1
# Details: with ptk6_human PTK6, Q13882
row,effect of a mutation on the interaction,Variant
1,disrupting interaction strength,N31S

# Variants of: B1
# Details: with ercc3_human ERCC3, P19447
# Sequence of ercc3_human ERCC3, P19447 (P19447 whole entry): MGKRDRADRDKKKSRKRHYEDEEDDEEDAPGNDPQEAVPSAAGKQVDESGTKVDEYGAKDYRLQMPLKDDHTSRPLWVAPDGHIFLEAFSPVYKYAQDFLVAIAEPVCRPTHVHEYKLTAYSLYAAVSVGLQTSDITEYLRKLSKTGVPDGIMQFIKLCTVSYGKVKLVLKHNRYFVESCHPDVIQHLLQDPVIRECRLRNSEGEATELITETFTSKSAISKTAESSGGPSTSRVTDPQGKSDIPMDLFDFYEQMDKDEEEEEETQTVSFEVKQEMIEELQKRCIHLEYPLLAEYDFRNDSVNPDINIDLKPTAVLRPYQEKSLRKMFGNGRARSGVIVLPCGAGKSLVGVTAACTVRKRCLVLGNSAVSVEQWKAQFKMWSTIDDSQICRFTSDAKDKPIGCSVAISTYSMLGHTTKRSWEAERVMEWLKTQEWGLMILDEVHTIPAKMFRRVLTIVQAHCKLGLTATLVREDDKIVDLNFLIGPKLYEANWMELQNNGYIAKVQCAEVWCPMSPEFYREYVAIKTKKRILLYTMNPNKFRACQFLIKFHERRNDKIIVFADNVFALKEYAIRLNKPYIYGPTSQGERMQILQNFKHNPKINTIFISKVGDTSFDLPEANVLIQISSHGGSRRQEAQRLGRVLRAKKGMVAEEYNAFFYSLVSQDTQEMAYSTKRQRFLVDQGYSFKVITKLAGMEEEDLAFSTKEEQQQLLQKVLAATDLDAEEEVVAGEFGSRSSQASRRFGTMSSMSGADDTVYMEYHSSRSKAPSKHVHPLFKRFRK
row,effect of a mutation on the interaction,Variant
1,disrupting interaction strength,N31S

# Variants of: B1
# Details: with mk09_human MAPK9, P45984
row,effect of a mutation on the interaction,Variant
1,disrupting interaction strength,N31S

# Variants of: B2
# Details: with tmcc2_human TMCC2, O75069
row,effect of a mutation on the interaction,Variant
1,with no effect,V126M
2,disrupting interaction strength,I501F

# Variants of: B3
# Details: with wt1_human WT1, P19544
# Sequence of wt1_human WT1, P19544 (P19544 whole entry): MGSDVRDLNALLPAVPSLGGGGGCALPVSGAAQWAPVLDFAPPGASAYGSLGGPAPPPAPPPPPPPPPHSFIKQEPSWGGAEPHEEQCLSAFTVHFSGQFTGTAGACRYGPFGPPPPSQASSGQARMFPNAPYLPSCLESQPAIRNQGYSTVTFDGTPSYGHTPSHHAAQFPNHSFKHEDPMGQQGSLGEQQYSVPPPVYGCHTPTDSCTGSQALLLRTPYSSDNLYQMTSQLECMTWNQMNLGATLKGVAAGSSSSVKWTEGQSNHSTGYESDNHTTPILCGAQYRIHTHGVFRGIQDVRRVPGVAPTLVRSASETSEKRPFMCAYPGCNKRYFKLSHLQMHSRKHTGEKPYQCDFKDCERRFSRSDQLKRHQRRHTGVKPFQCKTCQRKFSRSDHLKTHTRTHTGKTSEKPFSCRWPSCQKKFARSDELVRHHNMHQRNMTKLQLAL
row,effect of a mutation on the interaction,Variant
1,with no effect,A115T

# Variants of: B3
# Details: with k2c4_human KRT4, P19013
# Sequence of k2c4_human KRT4, P19013 (P19013 whole entry): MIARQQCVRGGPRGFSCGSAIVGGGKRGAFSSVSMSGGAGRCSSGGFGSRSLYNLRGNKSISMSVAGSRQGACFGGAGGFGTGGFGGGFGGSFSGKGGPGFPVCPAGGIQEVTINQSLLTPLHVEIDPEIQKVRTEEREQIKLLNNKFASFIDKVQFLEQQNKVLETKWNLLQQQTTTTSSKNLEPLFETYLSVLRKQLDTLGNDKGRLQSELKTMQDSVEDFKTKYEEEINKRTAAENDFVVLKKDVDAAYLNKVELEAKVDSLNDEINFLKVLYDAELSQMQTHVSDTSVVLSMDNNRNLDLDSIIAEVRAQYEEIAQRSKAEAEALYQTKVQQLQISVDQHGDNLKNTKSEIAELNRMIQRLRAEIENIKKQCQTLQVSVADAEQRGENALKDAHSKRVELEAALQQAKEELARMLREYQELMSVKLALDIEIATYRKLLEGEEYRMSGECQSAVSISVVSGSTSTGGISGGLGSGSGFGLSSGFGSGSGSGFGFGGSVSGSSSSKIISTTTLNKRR
row,effect of a mutation on the interaction,Variant
1,with no effect,A115T

# Variants of: B3
# Details: with mta1_human MTA1, Q13330
# Sequence of mta1_human MTA1, Q13330 (Q13330 whole entry): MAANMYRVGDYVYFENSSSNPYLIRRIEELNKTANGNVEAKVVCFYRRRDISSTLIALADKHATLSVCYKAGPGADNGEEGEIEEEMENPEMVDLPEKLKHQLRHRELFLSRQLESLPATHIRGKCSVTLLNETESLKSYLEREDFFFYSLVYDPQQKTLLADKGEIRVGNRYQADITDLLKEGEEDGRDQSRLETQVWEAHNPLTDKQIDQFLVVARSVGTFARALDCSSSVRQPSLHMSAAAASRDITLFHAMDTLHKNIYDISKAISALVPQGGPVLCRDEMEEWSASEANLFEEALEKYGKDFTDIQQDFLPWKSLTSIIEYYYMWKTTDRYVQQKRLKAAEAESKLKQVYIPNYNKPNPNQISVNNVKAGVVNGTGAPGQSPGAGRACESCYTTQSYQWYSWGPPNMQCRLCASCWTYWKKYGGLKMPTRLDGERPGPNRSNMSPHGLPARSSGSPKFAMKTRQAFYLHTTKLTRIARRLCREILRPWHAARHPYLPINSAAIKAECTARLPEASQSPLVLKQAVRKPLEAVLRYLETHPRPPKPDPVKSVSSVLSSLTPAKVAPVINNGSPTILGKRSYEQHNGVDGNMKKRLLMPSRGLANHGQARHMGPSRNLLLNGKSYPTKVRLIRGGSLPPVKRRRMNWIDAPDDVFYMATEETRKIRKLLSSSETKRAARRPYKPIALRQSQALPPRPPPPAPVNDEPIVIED
row,effect of a mutation on the interaction,Variant
1,with no effect,A115T

# Variants of: B3
# Details: with prs8_human PSMC5, P62195
# Sequence of prs8_human PSMC5, P62195 (P62195 whole entry): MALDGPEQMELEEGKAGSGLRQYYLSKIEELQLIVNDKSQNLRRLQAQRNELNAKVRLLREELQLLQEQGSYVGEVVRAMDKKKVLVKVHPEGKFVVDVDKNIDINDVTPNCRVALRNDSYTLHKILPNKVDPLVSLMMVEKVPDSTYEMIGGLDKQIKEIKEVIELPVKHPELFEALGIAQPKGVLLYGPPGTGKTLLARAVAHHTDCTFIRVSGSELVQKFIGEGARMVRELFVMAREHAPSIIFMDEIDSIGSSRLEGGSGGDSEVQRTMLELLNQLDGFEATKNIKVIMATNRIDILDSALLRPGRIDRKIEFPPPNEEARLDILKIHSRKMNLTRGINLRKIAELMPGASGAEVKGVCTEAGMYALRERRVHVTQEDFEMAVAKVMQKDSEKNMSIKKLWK
row,effect of a mutation on the interaction,Variant
1,with no effect,A115T

# Variants of: B3
# Details: with snai1_human SNAI1, O95863
# Sequence of snai1_human SNAI1, O95863 (O95863 whole entry): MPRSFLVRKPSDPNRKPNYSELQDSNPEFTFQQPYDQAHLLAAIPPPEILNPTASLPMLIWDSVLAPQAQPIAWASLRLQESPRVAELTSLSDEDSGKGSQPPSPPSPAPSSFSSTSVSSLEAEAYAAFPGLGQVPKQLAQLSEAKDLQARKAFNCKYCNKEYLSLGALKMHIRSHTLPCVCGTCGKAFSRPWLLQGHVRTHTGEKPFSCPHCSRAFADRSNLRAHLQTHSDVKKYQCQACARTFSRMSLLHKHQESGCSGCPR
row,effect of a mutation on the interaction,Variant
1,with no effect,A115T

# Reference: IntAct's records for PubMed 31515488
